Data from paper PMC9569990 (International Journal of Molecular Sciences, 2022).
One block for each binder: values may come before it.

Tests used:
Experiment in all cases: SPR; cytokine immobilised on ProteOn GLH sensor chip by amine coupling (9,000-14,000 RU); S100P (wild type or mutant) as analyte, 62 nM-16 µM; 25 °C; 10 mM HEPES, 150 mM NaCl, 1 mM CaCl2, 0.05% TWEEN 20, pH 7.4; heterogeneous ligand model (two ligand populations), one-site model for IL-13; values averaged over analyte concentrations (n = 3-5)
Details in all cases: both partners purified
Interleukin-31 = biological target: T1, Interleukin-31 (human, UniProt Q6EBC2 24-164)
T1 construct: Interleukin-31, human, UniProt Q6EBC2; see the manufacturer's catalogue number; also called IL-31; source: bought: PeproTech (source E. coli)
T1 sequence (looked up): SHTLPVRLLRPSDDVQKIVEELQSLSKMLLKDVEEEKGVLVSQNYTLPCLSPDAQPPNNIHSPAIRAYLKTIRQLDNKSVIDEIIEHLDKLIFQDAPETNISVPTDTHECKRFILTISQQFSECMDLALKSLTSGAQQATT

Interleukin-35 = biological target: T2, Interleukin-35 (human, UniProt P29459 23-219; Q14213 21-229)
T2 construct: the chain used for the SCOP family assignment; also called IL-35; source: bought: PeproTech (source HEK293)
T2 sequence (looked up) 1: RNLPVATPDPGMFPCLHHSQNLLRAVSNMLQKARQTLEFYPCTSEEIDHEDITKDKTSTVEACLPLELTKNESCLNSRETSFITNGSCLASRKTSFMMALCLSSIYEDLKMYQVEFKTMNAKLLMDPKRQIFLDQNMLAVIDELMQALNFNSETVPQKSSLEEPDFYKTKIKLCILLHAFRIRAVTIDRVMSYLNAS
T2 sequence (looked up) 2: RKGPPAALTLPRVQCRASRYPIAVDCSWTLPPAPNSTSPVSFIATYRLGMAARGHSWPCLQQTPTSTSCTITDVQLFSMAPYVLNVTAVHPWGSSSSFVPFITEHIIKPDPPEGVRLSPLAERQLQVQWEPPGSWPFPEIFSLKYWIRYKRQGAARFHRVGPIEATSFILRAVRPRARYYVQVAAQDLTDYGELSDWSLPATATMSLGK

Growth hormone variant = biological target: T3, Growth hormone variant (human, UniProt P01242 27-217)
T3 construct: Growth hormone variant, human, UniProt P01242; see the manufacturer's catalogue number; also called GH-V; source: bought: R&D Systems (source E. coli)

Interleukin-26 = biological target: T4, Interleukin-26 (human, UniProt Q9NPH9 22-171)
T4 construct: Interleukin-26, human, UniProt Q9NPH9; see the manufacturer's catalogue number; also called IL-26; source: bought: R&D Systems (source E. coli)
T4 sequence (looked up): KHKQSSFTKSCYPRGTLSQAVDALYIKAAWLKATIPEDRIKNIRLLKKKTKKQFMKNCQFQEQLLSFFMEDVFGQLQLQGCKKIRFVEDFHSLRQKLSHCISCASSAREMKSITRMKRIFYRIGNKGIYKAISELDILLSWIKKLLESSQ

Interleukin-21 = biological target: T5, Interleukin-21 (human, UniProt Q9HBE4 25-162)
T5 construct: Interleukin-21, human, UniProt Q9HBE4; see the manufacturer's catalogue number; also called IL-21; source: bought: PeproTech (source E. coli)

Prolactin = biological target: T6, Prolactin (human, UniProt P01236 29-227)
T6 construct: Prolactin, human, UniProt P01236; see the manufacturer's catalogue number; also called PRL; source: bought: PeproTech (source E. coli)
T6 sequence (looked up): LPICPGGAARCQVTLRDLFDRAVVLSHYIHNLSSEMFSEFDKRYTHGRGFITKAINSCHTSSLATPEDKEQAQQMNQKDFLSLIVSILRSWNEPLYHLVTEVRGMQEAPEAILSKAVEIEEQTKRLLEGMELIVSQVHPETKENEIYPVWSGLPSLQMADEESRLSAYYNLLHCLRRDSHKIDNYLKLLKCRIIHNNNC

Interleukin-10 = biological target: T7, Interleukin-10 (human, UniProt P22301 19-178)
T7 construct: Interleukin-10, human, UniProt P22301; see the manufacturer's catalogue number; also called IL-10; source: bought: PeproTech (source E. coli)
T7 sequence (P22301 19-178): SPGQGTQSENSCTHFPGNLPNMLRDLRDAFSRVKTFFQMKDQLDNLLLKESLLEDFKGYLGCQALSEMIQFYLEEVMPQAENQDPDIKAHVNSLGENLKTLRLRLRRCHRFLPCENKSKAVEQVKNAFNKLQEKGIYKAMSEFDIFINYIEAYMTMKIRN

T5 sequence (Q9HBE4 25-162): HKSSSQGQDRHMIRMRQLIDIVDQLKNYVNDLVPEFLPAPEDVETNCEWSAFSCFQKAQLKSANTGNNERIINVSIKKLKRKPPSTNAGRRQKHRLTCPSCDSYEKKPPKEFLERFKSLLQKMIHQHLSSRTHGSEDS
T3 sequence (P01242 27-217, change not shown): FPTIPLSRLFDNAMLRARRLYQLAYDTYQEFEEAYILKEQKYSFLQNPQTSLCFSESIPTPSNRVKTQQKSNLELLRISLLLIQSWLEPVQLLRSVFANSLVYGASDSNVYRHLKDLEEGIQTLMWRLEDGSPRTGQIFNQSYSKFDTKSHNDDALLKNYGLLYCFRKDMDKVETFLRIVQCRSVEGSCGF

- Kd (Interleukin-31): > 100 µM
- Kd (Interleukin-35): > 10 µM
- Kd (Growth hormone variant): > 100 µM
- Kd (Interleukin-26): > 100 µM
- Kd (Interleukin-21): > 100 µM
- Kd (Prolactin): > 100 µM
- Kd (Interleukin-10): > 100 µM
B1: Human S100P mutant Δ42–47 (lacks PGFLQS sequence in the 'hinge') (natural protein)
chain: MTELETAMGMIIDVFSRYSGSEGSTQTLTKGELKVLMEKELGKDKDAVDKLLKDLDANGDAQVDFSEFIVFVAAITSACHKYFEKAGLK
notes: S100P protein, human, recombinant, with residues 42-47 (PGFLQS) deleted; source: E. coli, prepared as previously described [28]

- Kd1 (heterogeneous ligand model, population 1) (Interleukin-31): 202 nM
- Kd2 (heterogeneous ligand model, population 2; column head printed as Kd1) (Interleukin-31): 1.18 µM
- Kd (Interleukin-35): > 100 µM
- Kd (Growth hormone variant): > 100 µM
- Kd (Interleukin-26): > 100 µM
- Kd1 (heterogeneous ligand model, population 1) (Interleukin-21): 401 nM
- Kd2 (heterogeneous ligand model, population 2; column head printed as Kd1) (Interleukin-21): 950 nM
- Kd1 (heterogeneous ligand model, population 1) (Prolactin): 689 nM
- Kd2 (heterogeneous ligand model, population 2; column head printed as Kd1) (Prolactin): 3.12 µM
- Kd1 (heterogeneous ligand model, population 1) (Interleukin-10): 4.74 µM
- Kd2 (heterogeneous ligand model, population 2; column head printed as Kd1) (Interleukin-10): 6.05 µM
B2: Human S100P mutant F89A (natural protein)
chain: MTELETAMGMIIDVFSRYSGSEGSTQTLTKGELKVLMEKELPGFLQSGKDKDAVDKLLKDLDANGDAQVDFSEFIVFVAAITSACHKYAEKAGLK
notes: S100P protein, human, recombinant, with F89A; source: E. coli, prepared as previously described [28]
